Reference: patent US20190134153A1, “IMMUNOMODULATORY EFFECT OF INHALED KINASE INHIBITOR PEPTIDES IN LUNG” (MOERAE MATRIX, INC., priority 2017, published 2019)

Tests used:
Assay in all cases: Kinase Profiling Assay
Assay type in all cases: biochemical
Conditions in all cases: 100 μM
ROCK-II(h) = ROCK-II(h) (Homo sapiens, UniProt O75116)
Pim-2(h) = Pim-2(h) (Homo sapiens, UniProt Q9P1W9)
CaMKIV(h) = molecular target: T1, CaMKIV(h) (Homo sapiens, UniProt Q16566)
T1 sequence (Q16566 1-473): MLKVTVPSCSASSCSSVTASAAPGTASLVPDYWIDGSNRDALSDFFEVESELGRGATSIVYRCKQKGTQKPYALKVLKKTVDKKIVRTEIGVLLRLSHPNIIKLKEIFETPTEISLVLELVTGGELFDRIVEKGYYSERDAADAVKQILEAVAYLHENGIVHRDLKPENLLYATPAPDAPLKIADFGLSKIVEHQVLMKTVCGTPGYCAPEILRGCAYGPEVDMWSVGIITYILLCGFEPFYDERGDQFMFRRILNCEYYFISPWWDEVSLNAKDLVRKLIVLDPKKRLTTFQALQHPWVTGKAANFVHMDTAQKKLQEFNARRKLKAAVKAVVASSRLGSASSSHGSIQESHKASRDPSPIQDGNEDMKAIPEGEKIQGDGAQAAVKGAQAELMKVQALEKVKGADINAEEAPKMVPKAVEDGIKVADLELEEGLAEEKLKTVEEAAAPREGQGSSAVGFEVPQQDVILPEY

EphA8(h) = molecular target: T2, EphA8(h) (Homo sapiens, UniProt P29322)
T2 sequence (P29322 28-1005): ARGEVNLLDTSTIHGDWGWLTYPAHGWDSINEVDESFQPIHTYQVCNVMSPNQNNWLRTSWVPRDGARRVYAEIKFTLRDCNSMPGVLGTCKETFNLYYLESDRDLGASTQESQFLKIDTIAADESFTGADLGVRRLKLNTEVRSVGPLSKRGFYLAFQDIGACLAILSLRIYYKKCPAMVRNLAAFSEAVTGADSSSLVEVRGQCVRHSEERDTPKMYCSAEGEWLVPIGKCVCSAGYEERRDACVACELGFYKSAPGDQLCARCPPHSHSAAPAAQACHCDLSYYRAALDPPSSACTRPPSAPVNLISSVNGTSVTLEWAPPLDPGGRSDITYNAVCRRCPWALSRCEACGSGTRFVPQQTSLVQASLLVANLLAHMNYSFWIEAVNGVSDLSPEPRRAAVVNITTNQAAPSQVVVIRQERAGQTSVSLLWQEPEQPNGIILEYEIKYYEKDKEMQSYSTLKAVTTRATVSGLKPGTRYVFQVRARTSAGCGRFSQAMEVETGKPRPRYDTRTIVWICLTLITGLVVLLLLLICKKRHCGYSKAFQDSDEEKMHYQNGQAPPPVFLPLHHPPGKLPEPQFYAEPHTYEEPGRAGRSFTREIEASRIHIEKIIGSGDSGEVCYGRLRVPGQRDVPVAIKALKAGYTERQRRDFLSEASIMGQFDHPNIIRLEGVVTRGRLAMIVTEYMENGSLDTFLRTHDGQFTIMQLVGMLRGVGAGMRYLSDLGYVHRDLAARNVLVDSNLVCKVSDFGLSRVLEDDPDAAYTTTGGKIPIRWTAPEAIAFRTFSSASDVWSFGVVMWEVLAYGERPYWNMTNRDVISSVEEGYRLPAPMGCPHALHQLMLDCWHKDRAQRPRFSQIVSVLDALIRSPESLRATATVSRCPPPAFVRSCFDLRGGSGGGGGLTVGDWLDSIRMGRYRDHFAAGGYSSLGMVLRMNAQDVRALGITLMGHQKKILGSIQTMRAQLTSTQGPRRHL

CK2(h) = CK2(h) (Homo sapiens, UniProt P68400)
CK2(h), sequence (P68400 whole entry): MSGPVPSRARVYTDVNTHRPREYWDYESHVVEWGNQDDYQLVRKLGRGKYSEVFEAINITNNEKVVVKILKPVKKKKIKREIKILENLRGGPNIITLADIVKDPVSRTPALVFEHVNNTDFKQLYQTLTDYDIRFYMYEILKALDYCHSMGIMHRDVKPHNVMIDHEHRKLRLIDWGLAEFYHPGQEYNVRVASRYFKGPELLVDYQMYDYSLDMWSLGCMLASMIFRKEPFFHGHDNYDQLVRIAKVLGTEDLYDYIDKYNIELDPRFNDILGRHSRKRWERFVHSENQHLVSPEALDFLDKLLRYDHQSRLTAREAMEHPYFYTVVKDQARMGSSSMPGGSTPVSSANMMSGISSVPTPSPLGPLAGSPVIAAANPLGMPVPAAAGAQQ
CK2(h), sequence (P67870 whole entry partner): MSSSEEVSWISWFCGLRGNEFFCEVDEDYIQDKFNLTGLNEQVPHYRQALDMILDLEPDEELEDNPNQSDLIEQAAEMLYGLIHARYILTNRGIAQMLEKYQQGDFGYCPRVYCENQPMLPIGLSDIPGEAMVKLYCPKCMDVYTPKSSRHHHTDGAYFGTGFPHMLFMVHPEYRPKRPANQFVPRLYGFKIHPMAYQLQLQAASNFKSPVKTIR

cKit(D816V)(h) = cKit(D816V)(h) (Homo sapiens, UniProt P10721, D816V)
PASK(h) = PASK(h) (Homo sapiens, UniProt Q96RG2)
PASK(h), sequence (Q96RG2 whole entry): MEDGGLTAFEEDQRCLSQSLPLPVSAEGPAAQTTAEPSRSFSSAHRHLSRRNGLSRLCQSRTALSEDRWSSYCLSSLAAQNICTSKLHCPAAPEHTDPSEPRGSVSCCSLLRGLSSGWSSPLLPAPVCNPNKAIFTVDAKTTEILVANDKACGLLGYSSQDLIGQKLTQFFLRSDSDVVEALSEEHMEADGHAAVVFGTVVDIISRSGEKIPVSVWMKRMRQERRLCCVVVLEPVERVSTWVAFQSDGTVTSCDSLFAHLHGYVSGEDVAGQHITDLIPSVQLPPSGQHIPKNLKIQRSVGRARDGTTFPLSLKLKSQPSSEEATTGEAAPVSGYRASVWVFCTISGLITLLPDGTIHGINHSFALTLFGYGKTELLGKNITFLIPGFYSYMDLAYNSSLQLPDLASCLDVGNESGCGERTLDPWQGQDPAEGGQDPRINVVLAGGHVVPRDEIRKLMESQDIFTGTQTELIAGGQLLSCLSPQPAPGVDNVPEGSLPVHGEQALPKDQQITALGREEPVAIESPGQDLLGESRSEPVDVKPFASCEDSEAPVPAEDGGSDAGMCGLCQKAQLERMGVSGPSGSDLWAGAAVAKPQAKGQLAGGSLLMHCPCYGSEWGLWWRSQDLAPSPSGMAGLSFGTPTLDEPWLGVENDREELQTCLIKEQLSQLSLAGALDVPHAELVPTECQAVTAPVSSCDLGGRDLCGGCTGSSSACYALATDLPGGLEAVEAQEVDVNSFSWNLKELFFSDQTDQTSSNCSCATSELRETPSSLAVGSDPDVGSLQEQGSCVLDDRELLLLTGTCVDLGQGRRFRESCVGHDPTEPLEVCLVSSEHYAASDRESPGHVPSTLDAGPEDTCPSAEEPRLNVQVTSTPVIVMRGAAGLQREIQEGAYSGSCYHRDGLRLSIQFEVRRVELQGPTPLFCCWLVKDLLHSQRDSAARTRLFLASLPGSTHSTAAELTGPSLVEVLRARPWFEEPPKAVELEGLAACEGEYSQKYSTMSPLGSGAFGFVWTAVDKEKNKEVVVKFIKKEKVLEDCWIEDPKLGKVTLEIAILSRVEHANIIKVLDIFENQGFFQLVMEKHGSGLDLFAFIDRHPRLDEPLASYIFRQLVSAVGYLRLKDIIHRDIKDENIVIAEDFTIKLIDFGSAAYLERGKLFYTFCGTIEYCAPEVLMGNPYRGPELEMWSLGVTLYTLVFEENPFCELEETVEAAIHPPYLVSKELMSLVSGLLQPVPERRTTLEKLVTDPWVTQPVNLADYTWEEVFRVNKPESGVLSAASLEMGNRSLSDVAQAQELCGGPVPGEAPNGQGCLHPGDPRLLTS

TrkA(h) = TrkA(h) (Homo sapiens, UniProt P04629)
TrkA(h), sequence (P04629 33-796): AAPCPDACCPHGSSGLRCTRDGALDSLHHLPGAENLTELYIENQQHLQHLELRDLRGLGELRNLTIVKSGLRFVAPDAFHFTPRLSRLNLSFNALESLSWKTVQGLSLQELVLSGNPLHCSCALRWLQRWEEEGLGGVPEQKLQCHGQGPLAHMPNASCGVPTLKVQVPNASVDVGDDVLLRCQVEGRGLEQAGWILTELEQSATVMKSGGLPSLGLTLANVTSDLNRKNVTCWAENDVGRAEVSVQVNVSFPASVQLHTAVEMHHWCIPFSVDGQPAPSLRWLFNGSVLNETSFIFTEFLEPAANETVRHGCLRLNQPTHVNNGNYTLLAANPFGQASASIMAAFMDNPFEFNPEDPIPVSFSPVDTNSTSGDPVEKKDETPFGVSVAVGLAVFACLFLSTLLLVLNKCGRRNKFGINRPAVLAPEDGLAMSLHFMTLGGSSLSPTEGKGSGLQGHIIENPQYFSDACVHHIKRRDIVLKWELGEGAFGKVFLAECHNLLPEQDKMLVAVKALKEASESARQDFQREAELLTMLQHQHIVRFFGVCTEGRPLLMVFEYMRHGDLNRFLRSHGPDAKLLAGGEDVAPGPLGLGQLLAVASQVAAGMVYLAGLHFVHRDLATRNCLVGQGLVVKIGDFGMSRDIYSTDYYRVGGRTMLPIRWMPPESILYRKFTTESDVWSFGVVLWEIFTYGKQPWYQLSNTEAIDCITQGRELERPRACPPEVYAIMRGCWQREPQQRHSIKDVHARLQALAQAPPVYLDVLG

IRAK1(h) = IRAK1(h) (Homo sapiens, UniProt P51617)
IRAK1(h), sequence (P51617 whole entry): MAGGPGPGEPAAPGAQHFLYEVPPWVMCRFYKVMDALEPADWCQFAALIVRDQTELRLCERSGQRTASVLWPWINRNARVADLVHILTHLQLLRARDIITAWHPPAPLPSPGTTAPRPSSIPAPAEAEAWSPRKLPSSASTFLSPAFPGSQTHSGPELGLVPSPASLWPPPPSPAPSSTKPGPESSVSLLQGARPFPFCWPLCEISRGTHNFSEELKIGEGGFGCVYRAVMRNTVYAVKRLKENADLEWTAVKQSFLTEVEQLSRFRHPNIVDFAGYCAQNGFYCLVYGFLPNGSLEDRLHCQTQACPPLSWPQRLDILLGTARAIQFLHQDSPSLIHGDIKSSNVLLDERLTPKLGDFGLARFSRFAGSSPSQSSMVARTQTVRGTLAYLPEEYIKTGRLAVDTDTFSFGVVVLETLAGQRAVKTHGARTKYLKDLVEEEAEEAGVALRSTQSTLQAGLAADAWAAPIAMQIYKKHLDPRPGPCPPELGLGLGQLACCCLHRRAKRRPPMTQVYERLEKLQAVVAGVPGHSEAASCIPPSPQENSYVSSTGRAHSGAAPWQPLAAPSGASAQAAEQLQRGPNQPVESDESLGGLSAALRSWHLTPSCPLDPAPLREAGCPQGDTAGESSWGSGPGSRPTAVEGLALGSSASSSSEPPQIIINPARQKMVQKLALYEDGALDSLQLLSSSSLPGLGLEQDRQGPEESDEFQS

BRK(h) = BRK(h) (Homo sapiens, UniProt Q13882)
BRK(h), sequence (Q13882 whole entry): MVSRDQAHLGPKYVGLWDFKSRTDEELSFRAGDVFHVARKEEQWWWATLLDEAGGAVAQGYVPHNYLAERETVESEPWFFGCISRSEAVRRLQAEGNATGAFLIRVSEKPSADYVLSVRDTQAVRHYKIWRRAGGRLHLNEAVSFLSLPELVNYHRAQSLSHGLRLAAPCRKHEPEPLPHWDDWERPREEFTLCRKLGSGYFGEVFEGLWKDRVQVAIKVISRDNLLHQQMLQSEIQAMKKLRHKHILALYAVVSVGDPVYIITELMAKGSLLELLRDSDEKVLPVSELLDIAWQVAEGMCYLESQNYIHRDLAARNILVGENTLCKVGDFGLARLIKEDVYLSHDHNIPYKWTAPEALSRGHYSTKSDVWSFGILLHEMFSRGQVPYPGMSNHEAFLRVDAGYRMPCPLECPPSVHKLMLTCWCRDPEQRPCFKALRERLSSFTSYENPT

Fms(h) = Fms(h) (Homo sapiens, UniProt P07333)
p70S6K(h) = p70S6K(h) (Homo sapiens, UniProt P23443)
p70S6K(h), sequence (P23443 whole entry): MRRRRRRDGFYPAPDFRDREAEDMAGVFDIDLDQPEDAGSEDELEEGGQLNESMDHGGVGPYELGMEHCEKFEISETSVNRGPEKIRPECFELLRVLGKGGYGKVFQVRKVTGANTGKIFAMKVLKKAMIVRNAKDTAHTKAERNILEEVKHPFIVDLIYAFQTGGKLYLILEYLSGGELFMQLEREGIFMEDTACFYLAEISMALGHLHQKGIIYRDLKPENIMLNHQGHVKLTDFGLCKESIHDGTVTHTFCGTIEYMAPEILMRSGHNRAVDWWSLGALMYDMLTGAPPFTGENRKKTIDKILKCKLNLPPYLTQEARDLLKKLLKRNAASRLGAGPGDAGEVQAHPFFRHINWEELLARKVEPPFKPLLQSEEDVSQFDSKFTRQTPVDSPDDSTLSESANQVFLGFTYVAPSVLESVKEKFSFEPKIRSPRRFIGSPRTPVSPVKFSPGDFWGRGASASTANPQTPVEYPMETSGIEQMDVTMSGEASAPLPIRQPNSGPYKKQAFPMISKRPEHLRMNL

TSSK1(h) = molecular target: T3, TSSK1(h) (Homo sapiens, UniProt Q9BXA7)
T3 sequence (Q9BXA7 1-367): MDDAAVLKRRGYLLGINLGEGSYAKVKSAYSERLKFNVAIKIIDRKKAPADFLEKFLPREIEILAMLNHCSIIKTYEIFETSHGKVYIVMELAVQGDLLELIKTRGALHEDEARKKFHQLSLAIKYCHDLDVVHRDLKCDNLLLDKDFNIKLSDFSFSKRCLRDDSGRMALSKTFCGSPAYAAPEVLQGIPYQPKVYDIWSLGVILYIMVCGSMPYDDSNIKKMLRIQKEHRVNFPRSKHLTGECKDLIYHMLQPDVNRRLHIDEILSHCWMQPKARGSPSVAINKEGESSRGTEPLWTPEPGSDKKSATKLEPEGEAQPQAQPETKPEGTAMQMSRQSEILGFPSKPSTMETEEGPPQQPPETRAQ

Lck(h) activated = Lck(h) activated (Homo sapiens, UniProt P06239)
cKit(h) = cKit(h) (Homo sapiens, UniProt P10721)
FAK(h) = FAK(h) (Homo sapiens, UniProt Q05397)

Pim-2(h), sequence (Q9P1W9 whole entry): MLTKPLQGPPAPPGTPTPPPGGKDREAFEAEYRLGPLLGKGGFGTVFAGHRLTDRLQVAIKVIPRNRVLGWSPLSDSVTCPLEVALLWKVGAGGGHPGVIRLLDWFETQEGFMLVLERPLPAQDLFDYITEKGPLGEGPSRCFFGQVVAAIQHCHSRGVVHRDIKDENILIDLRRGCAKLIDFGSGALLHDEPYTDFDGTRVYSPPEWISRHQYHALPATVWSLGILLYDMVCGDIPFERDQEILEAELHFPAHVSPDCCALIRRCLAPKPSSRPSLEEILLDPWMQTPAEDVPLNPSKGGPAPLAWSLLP

FAKLAARLYRKALARQLGVAA [MMI-0300] was tested, and the “% activity” value (ROCK-II(h)) was 74%, the “% activity” value (Pim-2(h)) was 76% and the “% activity” value (CaMKIV(h)) was 17%. For the same sequence, the “% activity” value (EphA8(h)) was 93%, the “% activity” value (CK2(h)) was 90% and the “% activity” value (cKit(D816V)(h)) was 60%. The “% activity” value (PASK(h)) was 29%, the “% activity” value (TrkA(h)) was 25% and the “% activity” value (IRAK1(h)) was 95%. The “% activity” value (BRK(h)) was 35%, the “% activity” value (Fms(h)) was 45% and the “% activity” value (p70S6K(h)) was 35%. For the same sequence, the “% activity” value (TSSK1(h)) was 79%, the “% activity” value (Lck(h) activated) was 243% and the “% activity” value (cKit(h)) was 53%.
With HRRIKAWLKKIKALARQLGVAA [MMI-0500] the “% activity” value (ROCK-II(h)) was 2%, the “% activity” value (Pim-2(h)) was 46% and the “% activity” value (CaMKIV(h)) was −1%. For the same sequence, the “% activity” value (FAK(h)) was 94%, the “% activity” value (EphA8(h)) was 337% and the “% activity” value (CK2(h)) was 93%. For the same sequence, the “% activity” value (cKit(D816V)(h)) was 30%, the “% activity” value (PASK(h)) was 9% and the “% activity” value (TrkA(h)) was 24%. The “% activity” value (IRAK1(h)) was 5%, the “% activity” value (BRK(h)) was 41% and the “% activity” value (Fms(h)) was 14%. For the same sequence, the “% activity” value (p70S6K(h)) was 3%, the “% activity” value (TSSK1(h)) was 46% and the “% activity” value (Lck(h) activated) was 76%. The “% activity” value (cKit(h)) was 45%.
KAFAKLAARLYRKALARQLGVAA [MMI-0400] was tested, and the “% activity” value (ROCK-II(h)) was 77%, the “% activity” value (Pim-2(h)) was 92% and the “% activity” value (CaMKIV(h)) was 18%. The “% activity” value (FAK(h)) was 96%, the “% activity” value (EphA8(h)) was 146% and the “% activity” value (CK2(h)) was 101%. For the same sequence, the “% activity” value (cKit(D816V)(h)) was 35%, the “% activity” value (PASK(h)) was 28% and the “% activity” value (TrkA(h)) was 17%. For the same sequence, the “% activity” value (IRAK1(h)) was 93%, the “% activity” value (BRK(h)) was 18% and the “% activity” value (Fms(h)) was 37%. The “% activity” value (p70S6K(h)) was 33%, the “% activity” value (TSSK1(h)) was 79% and the “% activity” value (Lck(h) activated) was 216%. The “% activity” value (cKit(h)) was 43%.
YARAAARQARAKALNRQLGVA [MMI-0200] was tested, and the “% activity” value (ROCK-II(h)) was 85%, the “% activity” value (Pim-2(h)) was 74% and the “% activity” value (CaMKIV(h)) was 71%. The “% activity” value (FAK(h)) was 110%, the “% activity” value (EphA8(h)) was 133% and the “% activity” value (CK2(h)) was 83%. The “% activity” value (cKit(D816V)(h)) was 118%, the “% activity” value (PASK(h)) was 60% and the “% activity” value (IRAK1(h)) was 101%. For the same sequence, the “% activity” value (BRK(h)) was 127%, the “% activity” value (Fms(h)) was 92% and the “% activity” value (p70S6K(h)) was 84%. The “% activity” value (TSSK1(h)) was 98%, the “% activity” value (Lck(h) activated) was 90% and the “% activity” value (cKit(h)) was 110%.
